Assay results reported in US20100043097A1 (CARNEGIE INSTITUTION OF WASHINGTON, published 2010).

B1: BRK1-myc (enzyme)
chain: GCCQSLFSGDNPLGKDGVQPQPLSQNNHGGATTADNGGSGGASGVGGGGGGGGIPSFSEFSFADLKAATNNFSSDNIVSESGEKAPNLVYKGRLQNRRWIAVKKFTKMAWPEPKQFAEEAWGVGKLRHNRLANLIGYCCDGDERLLVAEFMPNDTLAKHLFHWENQTIEWAMRLRVGYYIAEALDYCSTEGRPLYHDLNAYRVLFDEDGDPRLSCFGLMKNSRDGKSYSTNLAYTPPEYLRNGRVTPESVTYSFGTVLLDLLSGKHIPPSHALDMIRGKNIILLMDSHLEGKFSTEEATVVVELASQCLQYEPRERPNTKDLVATLAPLQTKSDVPSYVMLGIKKQEEAPSTPQRPLSPLGEACSRMDLTAIHQILVMTHYRDDEGTNELSFQEWTQQMKDMLDARKRGDQSFREKDFKTAIDCYSQFIDVGTMVSPTVFGRRSLCYLLCDQPDAALRDAMQAQCVYPDWPTAFYMQSVALAKLNMNTDAADMLNEAAQLEEKRQRGGRGS
notes: Full-length BRK1 with C-terminal 4x Myc tag, expressed from the 35S promoter in Arabidopsis; also called BRK1-myc protein; not shown: 4x Myc tag of the pGWB17 vector
B2: BRI1-GFP (receptor, Arabidopsis thaliana, UniProt O22476 24-1196, looked up)
chain: FQASPSQSLYREIHQLISFKDVLPDKNLLPDWSSNKNPCTFDGVTCRDDKVTSIDLSSKPLNVGFSAVSSSLLSLTGLESLFLSNSHINGSVSGFKCSASLTSLDLSRNSLSGPVTTLTSLGSCSGLKFLNVSSNTLDFPGKVSGGLKLNSLEVLDLSANSISGANVVGWVLSDGCGELKHLAISGNKISGDVDVSRCVNLEFLDVSSNNFSTGIPFLGDCSALQHLDISGNKLSGDFSRAISTCTELKLLNISSNQFVGPIPPLPLKSLQYLSLAENKFTGEIPDFLSGACDTLTGLDLSGNHFYGAVPPFFGSCSLLESLALSSNNFSGELPMDTLLKMRGLKVLDLSFNEFSGELPESLTNLSASLLTLDLSSNNFSGPILPNLCQNPKNTLQELYLQNNGFTGKIPPTLSNCSELVSLHLSFNYLSGTIPSSLGSLSKLRDLKLWLNMLEGEIPQELMYVKTLETLILDFNDLTGEIPSGLSNCTNLNWISLSNNRLTGEIPKWIGRLENLAILKLSNNSFSGNIPAELGDCRSLIWLDLNTNLFNGTIPAAMFKQSGKIAANFIAGKRYVYIKNDGMKKECHGAGNLLEFQGIRSEQLNRLSTRNPCNITSRVYGGHTSPTFDNNGSMMFLDMSYNMLSGYIPKEIGSMPYLFILNLGHNDISGSIPDEVGDLRGLNILDLSSNKLDGRIPQAMSALTMLTEIDLSNNNLSGPIPEMGQFETFPPAKFLNNPGLCGYPLPRCDPSNADGYAHHQRSHGRRPASLAGSVAMGLLFSFVCIFGLILVGREMRKRRRKKEAELEMYAEGHGNSGDRTANNTNWKLTGVKEALSINLAAFEKPLRKLTFADLLQATNGFHNDSLIGSGGFGDVYKAILKDGSAVAIKKLIHVSGQGDREFMAEMETIGKIKHRNLVPLLGYCKVGDERLLVYEFMKYGSLEDVLHDPKKAGVKLNWSTRRKIAIGSARGLAFLHHNCSPHIIHRDMKSSNVLLDENLEARVSDFGMARLMSAMDTHLSVSTLAGTPGYVPPEYYQSFRCSTKGDVYSYGVVLLELLTGKRPTDSPDFGDNNLVGWVKQHAKLRISDVFDPELMKEDPALEIELLQHLKVAVACLDDRAWRRPTMVQVMAMFKEIQAGSGIDSQSTIRSIEDGGFSTIEMVDMSIKEVPEGKL
notes: Expressed in transgenic Arabidopsis; solubilised microsomal proteins used for co-immunoprecipitation; also called BRI1-GFP protein expressed from the BRI1 promoter; not shown: GFP tag

Columns and labels:
[1] = target: B2; experiment: co-immunoprecipitation with anti-GFP antibodies after 100 nM brassinolide for 30 min, anti-myc immunoblot (FIG. 2D)
[2] = target: T1, Protein A bead alone (UniProt P38507 37-477); experiment: immunoprecipitation control from microsomal proteins, anti-GFP immunoblot
T1 construct: IP control without antibody; also called Protein A Sepharose beads
Description: Microsomal proteins (Input, lane 1) from det2 mutant plants expressing BRI1-GFP under the control of BRI1 promoter were immunoprecipitated (IP) using polyclonal anti-BRK1 antibodies affinity-purified using an BRK1 antigen column (lane 3). Protein A bead alone was used as IP control (lane 2). Immunoblots were probed using anti-GFP antibodies. BRI1-GFP can be pulled down by anti-BRI1 antibody but not by protein A bead.
All procedures were performed at 4° C. Rosette leaves of 3-week-old Arabidopsis plants were homogenized with mortar and pestle in the grinding buffer (20 mM HEPES, pH 7.5, 40 mM KCl, 250 mM sucrose, 5 mM MgCl₂ and protein inhibitors) at a ratio of 3 mL buffer per gram of tissue. Homogenate was filtered through 2 layers of Miracloth (CalBiochem, La Jolla, Calif.), and centrifuged at 10,000 g for 10 minutes. The supernatant was further centrifuged at 100,000 g for 60 min to pellet the microsomal fraction. Microsomes were re-suspended in 0.5 mL grinding buffer and sonicated for 10 sec. Triton X-100 was added to a final concentration of 1%. After mixing, the extracts were centrifuged at 20,000 g for 10 min. Supernatant was diluted 5 times with grinding buffer to reduce Triton X-100 to 0.2%. […] Samples were analyzed by SDS-PAGE and immunoblotting.

Binder: B1
- amount of co-immunoprecipitated BRK1-myc after BR treatment relative to the untreated sample [1]: 46 % of the untreated sample

Binder: B2
- binding result [2]: no binding
